Tests used:
[1] = molecular target: human KIR3DL2 (CD158k), wild type, at the cell surface (human) (UniProt P43630); assay: PK/PD model parameter 'Binding affinity', set from the filing's flow cytometry titration of IPH4102 on KIR3DL2-positive cells (EC50 about 0.07 ug/mL); not a separate kinetic measurement
[2] = molecular target: recombinant human KIR3DL2 protein (human) (UniProt P43630); assay: SPR (Biacore), bivalent binding, mean of three
[3] = molecular target: human KIR3DL2 (CD158k), wild type, at the cell surface (human) (UniProt P43630); assay: flow cytometry, concentration-response binding of PE-labelled IPH4102 on primary Sezary tumor cells
[4] = molecular target: human KIR3DL2 (CD158k), wild type, at the cell surface (human) (UniProt P43630); assay: flow cytometry, concentration-response binding of PE-labelled IPH4102 on HuT78 Sezary cell line
[5] = molecular target: human KIR3DL2 (CD158k), wild type, at the cell surface (human) (UniProt P43630); assay: cell-based or functional assay
[6] = molecular target: recombinant human KIR3DL2 protein (human) (UniProt P43630); assay: SPR (Biacore), average bivalent binding affinity to recombinant KIR3DL2
[7] = molecular target: recombinant human KIR3DL2 protein (human) (UniProt P43630); assay: SPR (Biacore), bivalent binding, N = 1
[8] = molecular target: recombinant human KIR3DL2 protein (human) (UniProt P43630); assay: SPR (Biacore), mean off-rate for bivalent binding converted to per hour
[9] = molecular target: human KIR3DL2 (CD158k), wild type, at the cell surface (human) (UniProt P43630); assay: flow cytometry, concentration-response binding of PE-labelled IPH4102 on COU-L Sezary cell line
[10] = molecular target: recombinant human KIR3DL2 protein (human) (UniProt P43630); assay: SPR (Biacore), bivalent binding, N = 3
[11] = molecular target: recombinant human KIR3DL2 protein (human) (UniProt P43630); assay: SPR (Biacore), bivalent binding, N = 2

human KIR3DL2 (CD158k), wild type, at the cell surface (human), sequence (P43630 22-455 E158D): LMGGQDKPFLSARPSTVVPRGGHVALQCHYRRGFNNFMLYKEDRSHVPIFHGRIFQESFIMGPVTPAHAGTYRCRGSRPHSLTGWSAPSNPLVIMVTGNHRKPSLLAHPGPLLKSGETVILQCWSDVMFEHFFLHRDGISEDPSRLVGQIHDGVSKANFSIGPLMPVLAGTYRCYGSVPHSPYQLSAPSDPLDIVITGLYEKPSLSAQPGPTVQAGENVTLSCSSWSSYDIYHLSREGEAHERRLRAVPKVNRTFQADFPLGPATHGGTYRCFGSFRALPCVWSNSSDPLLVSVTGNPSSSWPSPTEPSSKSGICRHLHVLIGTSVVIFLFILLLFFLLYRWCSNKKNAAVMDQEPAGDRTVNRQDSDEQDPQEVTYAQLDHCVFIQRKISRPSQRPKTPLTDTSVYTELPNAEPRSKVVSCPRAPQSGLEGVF

Kd [1]: 0.07 µg/mL
Kd [2]: 0.146 nM
koff [2]: 0.00014 s⁻¹
kon [2]: 962000 M⁻¹ s⁻¹
EC50 [3]: 0.07 µg/mL
EC50 [4]: 0.06 µg/mL
EC50 in 51Cr-release assay HuT 78 tumor lysis by PBMC from healthy volunteers [5]: 45 ng/mL
median EC10 in the 51Cr release assay (HuT78 tumor cell lysis by healthy donors' PBMC, NK cell lytic capacity) [5]: 2 ng/mL
Kd [6]: 0.0219 µg/mL
Kd [7]: 0.162 nM
koff [7]: 0.000156 s⁻¹
kon [7]: 968000 M⁻¹ s⁻¹
koff [8]: 0.00014 s⁻¹
EC50 [9]: 0.087 µg/mL
Kd [10]: 0.144 nM
koff [10]: 0.000139 s⁻¹
kon [10]: 965000 M⁻¹ s⁻¹
Kd [11]: 0.131 nM
koff [11]: 0.000125 s⁻¹
kon [11]: 953000 M⁻¹ s⁻¹
B1: IPH4102 (humanized 2B12 mAb, full-length human IgG1 anti-KIR3DL2 antibody) (antibody, from a related filing, V domains shown)
VH: QIQLVQSGSELKKPGASVKVSCKASGYTFTTAGMQWVRQAPGQGLEWIGWINSHSGVPKYAEDFKGRFVFSLDTSVSTAYLQISSLKAEDTAVYFCARGGDEGVMDYWGQGTTVTVSS
VL: DIQMTQSPSFLSASVGDRVTITCKASQDVSTAVAWYQQKPGQPPKLLIYWTSTRHTGVPDRFSGSGSGTDYTLTISSLQAEDVAVYYCQQHYSTPWTFGGGTKVEIK
